According to patent US20100285016A1 (Genentech, published 2010):

T1: PRO34128-Fc fusion protein (human, UniProt Q6UXV0 19-351, limits assumed)
T1 construct: Used as conditioned medium; not shown: Fc portion
T1 sequence: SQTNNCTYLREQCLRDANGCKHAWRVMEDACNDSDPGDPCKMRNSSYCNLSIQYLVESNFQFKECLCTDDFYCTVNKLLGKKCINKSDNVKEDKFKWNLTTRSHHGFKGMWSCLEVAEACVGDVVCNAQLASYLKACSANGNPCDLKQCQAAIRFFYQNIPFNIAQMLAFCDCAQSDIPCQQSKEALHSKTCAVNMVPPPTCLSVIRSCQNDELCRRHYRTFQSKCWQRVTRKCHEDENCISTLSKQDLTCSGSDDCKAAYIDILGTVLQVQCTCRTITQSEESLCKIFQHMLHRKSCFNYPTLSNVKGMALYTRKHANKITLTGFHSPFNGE


Target: T1, PRO34128-Fc fusion protein
Experiment: co-immunoprecipitation with protein-A beads from mixed conditioned media, anti-FLAG western blot
Protocol: GFR1-Fc, GFR2-Fc, GFR3-Fc, GFR4-Fc and PRO34128-Fc fusion proteins were produced by transfecting appropriate expression constructs using Fugene6™ (Roche Biosciences). C-terminally FLAG-tagged GDNF, NRTN, ARTN, PSPN and LEFTY-B were also produced in 293T cells by transfecting the appropriate expression construct in 293T cells using Fugene6™. All expression constructs are under CMV promoter control. The conditioned media were collected 48 hours post transfection and appropriate Fc fusion proteins (as indicated in the FIG. 6A) were mixed with the ligands and the interacting complexes were immunoprecipitated using protein-A beads (Sigma). Immunoprecipiated proteins were resolved on a SDS-PAGE and detected by western blotting. The co-precipitating FLAG-tagged proteins were detected using an anti-FLAG antibody (Sigma) at a final concentration of 1 μg/ml, HRP-conjugated anti-mouse antibody (ICN Biosciences) and a chemiluminescent substrate (Amersham).

binding result | Binder
no binding | C-terminally FLAG-tagged NRTN (ligand, UniProt Q99748 96-197, looked up, Produced in 293T cells and used as conditioned medium; also called neurturin; not shown: C-terminal FLAG tag) ARLGARPCGLRELEVRVSELGLGYASDETVLFRYCAGACEAAARVYDLGLRRLRQRRRLRRERVRAQPCCRPTAYEDEVSFLDAHSRYHTVHELSARECACV
no binding | C-terminally FLAG-tagged PSPN (ligand, UniProt O60542 61-156, looked up, Produced in 293T cells and used as conditioned medium; not shown: C-terminal FLAG tag) ALSGPCQLWSLTLSVAELGLGYASEEKVIFRYCAGSCPRGARTQHGLALARLQGQGRAHGGPCCRPTRYTDVAFLDDRHRWQRLPQLSAAACGCGG
no binding | C-terminally FLAG-tagged ARTN (ligand, UniProt Q5T4W7 108-220, looked up, Produced in 293T cells and used as conditioned medium; not shown: C-terminal FLAG tag) AGGPGSRARAAGARGCRLRSQLVPVRALGLGHRSDELVRFRFCSGSCRRARSPHDLSLASLLGAGALRPPPGSRPVSQPCCRPTRYEAVSFMDVNSTWRTVDRLSATACGCLG
